One assay deals with Y4R. Kind of assay: cell-based or functional assay.
The target in another assay is Y1R. Description: cell-based or functional assay.

Primed or numbered codes have the meaning given here. [ ]: non-standard residue; d: D form. Pqa″ = not defined here

Y1R, sequence (P25929 whole entry): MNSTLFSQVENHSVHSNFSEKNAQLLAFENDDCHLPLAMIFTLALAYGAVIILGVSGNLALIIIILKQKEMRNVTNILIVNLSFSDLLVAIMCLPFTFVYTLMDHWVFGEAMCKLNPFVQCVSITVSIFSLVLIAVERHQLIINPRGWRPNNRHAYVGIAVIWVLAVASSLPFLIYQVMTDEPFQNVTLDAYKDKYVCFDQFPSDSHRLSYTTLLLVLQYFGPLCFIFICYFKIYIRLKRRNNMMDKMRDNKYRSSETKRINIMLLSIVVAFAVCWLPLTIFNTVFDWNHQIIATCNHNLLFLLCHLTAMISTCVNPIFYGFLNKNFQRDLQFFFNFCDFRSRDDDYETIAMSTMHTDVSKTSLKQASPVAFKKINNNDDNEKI

B1: H-Ile-Lys-Pqa-Arg-His-Ala-Leu-Asn-Leu-Val-Thr-Arg-Gln-Arg-Tyr-NH2 (peptide)
peptide: H-IK[Pqa″]RHALNLVTRQRY-NH2
modifications: reading uncertain; also: printed as H-Ile-Lys-Pqa-Arg-His-Ala-Leu-Asn-Leu-Val-Thr-Arg-Gln-Arg-Tyr-NH2
B1: the Y4R EC50(nM) FLIPR with Y4R is > 5000 nM. Moreover, the Y1R EC50(nM) FLIPR with Y1R was > 5000 nM.

B2: H-Ile-Lys-Pqa-Ala-His-Trp-Leu-Asn-Leu-Val-Thr-Arg-Gln-Arg-Tyr-NH2 (peptide)
peptide: H-IK[Pqa″]AHWLNLVTRQRY-NH2
modifications: reading uncertain; also: printed as H-Ile-Lys-Pqa-Ala-His-Trp-Leu-Asn-Leu-Val-Thr-Arg-Gln-Arg-Tyr-NH2
Regarding B2, in the assay with Y4R, the Y4R EC50(nM) FLIPR was > 5000 nM.

B3: H-Ile-Lys-Pqa-Arg-His-Trp-Leu-Asn-Leu-Val-Thr-Arg-Gln-Arg-Tyr-NH2 (peptide)
peptide: H-IK[Pqa″]RHWLNLVTRQRY-NH2
modifications: reading uncertain; also: printed as H-Ile-Lys-Pqa-Arg-His-Trp-Leu-Asn-Leu-Val-Thr-Arg-Gln-Arg-Tyr-NH2
As for B3, the Y4R EC50(nM) FLIPR in the assay with Y4R is > 5000 nM.

B4: H-Ile-Lys-Pqa-Arg-His-Tyr-Ala-Asn-Leu-Val-Thr-Arg-Gln-Arg-Tyr-NH2 (peptide)
peptide: H-IK[Pqa″]RHYANLVTRQRY-NH2
modifications: reading uncertain; also: printed as H-Ile-Lys-Pqa-Arg-His-Tyr-Ala-Asn-Leu-Val-Thr-Arg-Gln-Arg-Tyr-NH2
With B4, in the assay with Y4R, the Y4R EC50(nM) FLIPR was > 5000 nM. Besides, in the assay with Y1R, the Y1R EC50(nM) FLIPR is > 5000 nM.

Source of the values: patent US7410949.
